From patent publication US20210236667A1 come the findings set out here.

Like-named read-outs stand apart in the source and are kept apart here.

One may read the Kd as the equilibrium constant for the complex coming apart.

The target of experiment [1] is Human epidermal growth factor receptor (EGFR) (human) (UniProt P00533). The experiment can be described thus: flow cytometry on MDA-MB-468 cells.
For experiment [2] the target is unchanged. The experiment can be described thus: flow cytometry saturation binding on MDA-MB-468 cells.
Experiment [3] shares this target. Description: immunoreactive fraction (Lindmo) assay on MDA-MB-468 cells.
For experiment [4] the target is unchanged. Description: saturation radioligand binding assay on MDA-MB-468 cells.
Experiment [5] shares this target. Description: flow cytometry on MDA-MB-468 cells. The source holds these as a separate data set.
For experiment [6] the target is unchanged. The experiment can be described thus: competitive radioligand binding on MDA-MB-468 cells pre-blocked with 100-fold excess of unlabeled 8709-scFv-Fc; ^225Ac-8709-scFv-Fc at 50 nM.

B1: 8709-scFv-Fc-PEG6-DM1 (scFv, part only; not given: scFv linker, hinge and Fc, V domains shown, not shown: another chain or arm of the molecule; a dimerising Fc or GST; small tags and cut ends)
VH: EVQLVESGGGLVQPGGSLRLSCAASGFNLYSSSMHWVRQAPGKGLEWVASIYPYSGYTYYADSVKGRFTISADTSKNTAYLQMNSLRAEDTAVYYCARYPFGVSAYYAMDYWGQGTLVTVSS
VL: DIQMTQSPSSLSASVGDRVTITCRASQSVSSAVAWYQQKPGKAPKLLIYSASSLYSGVPSRFSGSRSGTDFTLTISSLQPEDFATYYCQQSYWLITFGQGTKVEIK
modifications: PEG6-DM1 coupled via DM1-PEG6-NHS, drug to antibody ratio 3.5; attachment sites not stated.
In experiment [1], B1 came in with a % binding of over 90%. The molecule also registered a Kd in experiment [2] of 4.2 nM.

B2: ^225Ac-8709-scFv-Fc (scFv, part only; not given: scFv linker, hinge and Fc, V domains shown, not shown: another chain or arm of the molecule; a dimerising Fc or GST; small tags and cut ends)
VH: EVQLVESGGGLVQPGGSLRLSCAASGFNLYSSSMHWVRQAPGKGLEWVASIYPYSGYTYYADSVKGRFTISADTSKNTAYLQMNSLRAEDTAVYYCARYPFGVSAYYAMDYWGQGTLVTVSS
VL: DIQMTQSPSSLSASVGDRVTITCRASQSVSSAVAWYQQKPGKAPKLLIYSASSLYSGVPSRFSGSRSGTDFTLTISSLQPEDFATYYCQQSYWLITFGQGTKVEIK
modifications: Macropa chelator (coupled via macropa-NCS) carrying ^225Ac; attachment sites not stated.
With B2, the immunoreactive fraction in experiment [3] was 0.86. The molecule also returned a Kd in experiment [4] of 14.5 nM.

B3: Macropa-8709-scFv-Fc (scFv, part only; not given: scFv linker, hinge and Fc, V domains shown, not shown: another chain or arm of the molecule; a dimerising Fc or GST; small tags and cut ends)
VH: EVQLVESGGGLVQPGGSLRLSCAASGFNLYSSSMHWVRQAPGKGLEWVASIYPYSGYTYYADSVKGRFTISADTSKNTAYLQMNSLRAEDTAVYYCARYPFGVSAYYAMDYWGQGTLVTVSS
VL: DIQMTQSPSSLSASVGDRVTITCRASQSVSSAVAWYQQKPGKAPKLLIYSASSLYSGVPSRFSGSRSGTDFTLTISSLQPEDFATYYCQQSYWLITFGQGTKVEIK
modifications: Macropa chelator coupled via macropa-NCS, not radiolabeled; attachment sites not stated.
B3 registered a % binding in experiment [1] of over 90%. In experiment [2], this molecule registered a Kd of 11.3 nM and a fold higher KD as compared to 8709-scFv-Fc of 10.4 fold. In addition, the % binding in experiment [5] was over 85%.

B4: 8709-scFv-Fc (scFv, part only; not given: scFv linker, hinge and Fc, V domains shown, not shown: another chain or arm of the molecule; a dimerising Fc or GST; small tags and cut ends)
VH: EVQLVESGGGLVQPGGSLRLSCAASGFNLYSSSMHWVRQAPGKGLEWVASIYPYSGYTYYADSVKGRFTISADTSKNTAYLQMNSLRAEDTAVYYCARYPFGVSAYYAMDYWGQGTLVTVSS
VL: DIQMTQSPSSLSASVGDRVTITCRASQSVSSAVAWYQQKPGKAPKLLIYSASSLYSGVPSRFSGSRSGTDFTLTISSLQPEDFATYYCQQSYWLITFGQGTKVEIK
Consider B4, for which the % binding in experiment [1] is over 90%. Further, in experiment [2], the Kd came out at 1.1 nM. The same molecule displayed a fold reduction in the binding of ^225Ac-8709-scFv-Fc to EGFR in experiment [6] of 23.2 fold.
